Source: US20210115135A1 (ZHEJIANG SHIMAI PHARMACEUTICAL, published 2021)
Residue numbers refer to the chain shown, from its start. Values joined by “and” are separate entries in the source; they are usually repeats but may differ in a detail not shown here. Equal entries are not always repeated.

B1: DNV1 Fab (Fab, V domains shown)
VH: QVQLQQWGAGLLKPSETLSLTCAVYGGSFSGYYWSWIRQPPGKGLEWIGEINHSGSTNYNPSLKSRVTISVDTSKNQFSLKLSSVTAADTAVYYCARITPRFDAFDIWGQGTMVTVSS
VL: QSVLTQPPSVSAAPGRKVTISCSGSSSNIGTNSVSWYQQFPGTAPKLLIYDNNKRLSRIPDRFSGSKSGTSASLAISGLQSEDEADYYCAAWDDSLTGYVFGTGTKVTVL
notes: Human Fab from a phage library, hexahistidine-tagged, detected through a FLAG tag, made in E. coli HB2151
B2: DNV3 Fab (Fab, V domains shown)
VH: EVQLVQSGAEVKKPGASVKVSCKASGYTFTSYGISWVRQAPGQGLEWMGWISAYNGNTNYAQKLQGRVTMTTDTSTSTAYMELRSLRSDDTAVYYCARDSSSWWVDAFDIWGQGTMVTVSS
VL: QSVLTQPPSVSAAPGQKVTISCSGSTSNIAINYVSWYQQVPGTVPKLLIYDDDKRPSGIPDRFSGSKSGTSATLDISGLQTGDEAHYYCGVWDNSLLAVLFGGGTSLTVL
notes: as for B1
B3: DNV3.1 Fab (Fab, V domains shown)
VH: B2 VH
VL: LPVLTQPPSASGTPGQRVTISCSGSSSNIGGNSVNWYQQLPGTAPKLLIYSDNQRPSGVPDRFSGSKSGTSASLAISGLQSEEEADYYCAAWDDSLNAYVFGPGTKVTVL
B4: DNV3.14 Fab (Fab, V domains shown)
VH: B2 VH
VL: PYVLTQPPSVSGAPRQRVTISCSGGSSNIASNAVNWYQQFPGKAPKLLVYYDDLLPSGVSDRFSGSKTGTSASLAISALQSEDEADYFCAAWDDSLNGVLFGGGTKLTVL
notes: Light-chain-shuffled Fab variant of DNV3
B5: DNV3.3 Fab (Fab, V domains shown)
VH: B2 VH
VL: QSVLTQPPSASGTPGQRVTISCSGSSSNIGNNAVNWYQQLPGKAPKLLIYYDDLLPSGVSDRFSGSKSGTSASLAISGLRSEDEGDYFCAAWDDSLSGQVLFGGGTKLTVL
notes: as for B4
B6: DNV3.7 Fab (Fab, V domains shown)
VH: B2 VH
VL: SYELTQPPSVSEAPRQRVTISCSGSSSNIGSNAVSWYQQVPRKAPKLLVYYDDLLPSGVSDRFSGSKSGTSASLAIRGLQSEDEADYYCAAWDDSLNAFVFGTGTKVTVL
notes: as for B4
B7: DNV3.8 Fab (Fab, V domains shown)
VH: B2 VH
VL: SYELTQPPSVSEAPRQRATISCSGSRSNIGNNAVSWYQRLPGQAPKLLIYYDTFLPSGVSDRFSGSKSGTSASLTISGLQSDDEADYYCAAWDDSLNGVLFGGGTKLTVQ
notes: as for B4
B8: DNV3.2 Fab (Fab, V domains shown)
VH: B2 VH
VL: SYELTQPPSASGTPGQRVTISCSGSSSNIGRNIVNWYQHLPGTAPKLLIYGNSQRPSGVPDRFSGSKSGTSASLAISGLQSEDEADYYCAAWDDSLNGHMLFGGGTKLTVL
notes: as for B4
B9: DNV3.4 Fab (Fab, V domains shown)
VH: B2 VH
VL: SYVLTQPPSTSAAPGQTVTILCFGGGSNLQSNTVNWYRHVSGSAPKLLIHSDDERASGVSPRLSGSKSGGSASLILRGLQPEDEGDYYCAAWDDRLDAYVFGTGTKVTVL
notes: as for B4
B10: DNV3.5 Fab (Fab, V domains shown)
VH: B2 VH
VL: B3 VL with L1Q, P2S, S26T, S33T, D52S, Q54R, K67T, E83D, N97I, P103T
notes: as for B4
B11: DNV3.16 Fab (Fab, V domains shown)
VH: B2 VH
VL: B4 VL with P1S, V10A, A13T, R15G
notes: as for B4
B12: DNV3.9 Fab (Fab, V domains shown)
VH: B2 VH
VL: B4 VL with P1L, Y2P
notes: as for B4
B13: DNV3.12 Fab (Fab, V domains shown)
VH: B2 VH
VL: SYVLTQPPSASGTPGQRVTISCSGSSSNIGSNIVNWYQHLPGTAPKLLIYGNSQRPSGVSDRFSGSKSGTSASLAISGLQSEDEANYYCAVWDDSLDGHLLFGGGTKLTVL
notes: as for B4

Each binder was assayed against T1, recombinant human LAG3 (Sino Biological Inc.) (human, UniProt P18627 23-450) (assay: ELISA, recombinant human LAG3 coated, Fab detected by anti-FLAG-HRP).
T1 construct: Bought recombinant protein; also called CD223; biotinylated recombinant human LAG3
T1 sequence (looked up): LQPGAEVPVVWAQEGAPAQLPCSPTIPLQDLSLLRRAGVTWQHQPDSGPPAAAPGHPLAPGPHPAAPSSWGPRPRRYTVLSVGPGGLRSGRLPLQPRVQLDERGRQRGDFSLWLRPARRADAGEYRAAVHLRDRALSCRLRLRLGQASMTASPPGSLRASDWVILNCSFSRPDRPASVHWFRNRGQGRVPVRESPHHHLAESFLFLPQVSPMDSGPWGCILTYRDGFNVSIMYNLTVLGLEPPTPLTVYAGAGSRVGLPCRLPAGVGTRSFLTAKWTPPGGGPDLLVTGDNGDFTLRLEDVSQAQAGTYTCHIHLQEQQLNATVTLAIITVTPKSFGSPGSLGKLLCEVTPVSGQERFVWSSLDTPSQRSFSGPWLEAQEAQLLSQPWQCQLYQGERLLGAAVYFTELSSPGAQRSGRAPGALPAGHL
Protocol: The hexahistidine-tagged antibodies were expressed in E. coli strain HB2151 and purified from the soluble fraction of periplasm by using the Ni-NTA resin. 7 monoclonal antibodies against human LAG3 were selected by panning a large phage-display library of naïve human antibodies in the format of antigen-binding fragment (Fab). Then ELISA was performed according to standard protocols. Briefly, recombinant human LAG3 (Sino Biological Inc.) was coated on Corning EIA/RIA high-binding 96-well plates (Corning Inc.) at 50 ng per well overnight at 4° C. and blocked with 3% nonfat milk in PBS (pH7.4). Fivefold serially diluted antibodies were added and incubated at room temperature for 2 h. The plates were washed with PBS containing 0.05% Tween 20. Bound antibodies were detected by HRP-conjugated anti-FLAG tag antibody (Sigma-Aldrich). The assay was developed at room temperature with TMB substrate (Sigma-Aldrich) and monitored at 450 nm with a microplate reader.

Row | Binder | EC50 | binding result
1 | B1 | ≤ 10 nM | –
2 | B2 | 6 nM and ≤ 10 nM | –
3 | B3 | – | binds
4 | B4 | – | binds
5 | B5 | – | binds
6 | B6 | – | binds
7 | B7 | – | binds
8 | B8 | – | binds
9 | B9 | – | binds
10 | B10 | – | binds
11 | B11 | – | binds
12 | B12 | – | binds
13 | B13 | – | binds
